Data: paper PMC12910678 (Nature, 2021)

Biological target: SARS-CoV-2 RBD (residues 319-591) (SARS-CoV-2, Wuhan-Hu-1 (MN908947), UniProt P0DTC2)
Assay: SPR

B1: C121 IgG (antibody, V domains shown)
VH: not shown
VL: QSALTQPASVSGSPGQSITISCTGTSSDVGSYNLVSWYQQHPGKAPKLMIYEGSKRPSGVSNRFSGSKSGNTASLTISGLQAEDEADYYCCSYAGSSTLVFGGGTKLTVL
  binding result: binds
